The RNAGym collection of RNA variant scans (doi:10.1073/pnas.2313332121)

B1: TPR t1 (parent)
chain: GACCAAUCUGCCCUCAGAGCUCGAGAACAUCUUCGGAUGCAGAGGAGGCAGGCUUCGGUGGCGCGAUAGCGCCAACGUCCUCAACCUCCAAUGCAUCCCACCACAUGAUGAUGCCUGAAGAGCCUUGGUUUUUUG

Variants of: B1
Experiment: polymerase ribozyme fitness, log enrichment relative to wild type (log ratio); higher = more active; in vitro selection for triplet polymerase activity
In short: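 Frozen incubation at −7 °C formed the core of a single, triplicate in vitro selection round applied to PCR-built, transcribed mutant libraries of each subunit of a heterodimeric triplet polymerase ribozyme. Extended constructs were gel-excised, captured with streptavidin beads and amplified by RT-PCR, and input and output libraries were Illumina-sequenced with a filter of ≥10 input reads and ≥1 read per output. Fitness is the logarithm of genotype enrichment relative to wild-type enrichment, with inverse-variance-weighted replicate averaging, and the logarithm is base 2.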

Row | Variant | polymerase ribozyme fitness (log ratio)
1 | C12A G117U U131C | -4.17
2 | C11U G71A U133G | -1.59
3 | C12U C70U C97A | -5.44
4 | C12G C40U C49U G65C C114G | -6.07
5 | C12A A16U G44C C94U G117C U129G | -5.45
6 | C12A C13U G61U U106A | -0.644
7 | C12U A18C C34U G120C | -4.87
8 | C12U A121C | 2.05
9 | C12U A27C | -2.1
10 | C11U U33A C85G C101U | -5.74
11 | C11U G17U G48A C124G | -1.88
12 | C12A A29U C49U A74G C123A U131A | -1.45
13 | C12A C49U | -1.61
14 | C12G U32A A37U | -3.65
15 | C12G G48C C49A U55C G61A A95G G110A | -2.17
16 | C12U C13A A27G G93A | -5.78
17 | C12U A37U G63A C85U G93C G120A | -0.961
18 | C12G U14G G107U C114U G120U C123U U133A | -4.14
19 | C12A A18C | -1.6
20 | C11U G52U A83U G110C C123U | -5.57
21 | C12A G61A G93A | -0.608

Row | Variant | polymerase ribozyme fitness (log ratio)
22 | C12G A83G C88G U125G | -2.21
23 | C11U G19U U54A G71A A121C G135U | -4.33
24 | C12G G35A G48U G57U C80U | -4.47
25 | C12G G61A C62G U87A G113U U125G | -7.34
26 | C12A U21C A83C | -0.123
27 | C12G G19C | -1.64
28 | C12G A37U A105C U112C | -0.116
29 | C12G G19U C72U | -6.54
30 | C12A G71A | -1.07
31 | C12U C34A G71U U78G U125A | -3.95
32 | C12A C15A C72A G110U | -4.88
33 | C12G A46G G63C C115G | -4.6
34 | C12A C64U U81A | -1.67
35 | C12G C88A | 0.489
36 | C12A A41U G48A G77U A83G | -2.82
37 | C12U C49G G113U C114A U129A | -4.7
38 | C12G A74U | -0.266
39 | C12A G48C U54C A83C C88A | -2.86
40 | C11U G48U | -0.841
41 | C11U G48A | -1.69
42 | C11U U33G | -5.16

Row | Variant | polymerase ribozyme fitness (log ratio)
43 | C12A U32C G107A G120A | -3.32
44 | C12G G57A G61U C80A | -2.05
45 | C12A U116A C124A | -0.089
46 | C11U G45A G51A C76G A91C C114G | -5.71
47 | C12A C22A G52A A84U A91C G120C | -6.58
48 | C11U G17U | -4.34
49 | C12A C49A G61A C82A | -0.648
50 | C11U G17A G57C C89U G120C | -1.86
51 | C12A A29U | -1.98
52 | C12U C31G | -5.12
53 | C12U C56U | 0.248
54 | C12A G48U G71A | -2.04
55 | C12G G93A C94U | -1.83
56 | C12G G51C | -3.21
57 | C11U G60A | -0.708
58 | C11U G17A C82A | -4.52
59 | C11U C115A U125G | -2.51
60 | C12U C53U C80G C82U A90G | -2.24
61 | C12A G19A G60U | -2.57
62 | C12A C88G C89A U116C C124A G127A | -3.44
63 | C11U U21C G63A C82U | -1.23

Row | Variant | polymerase ribozyme fitness (log ratio)
64 | C12U C22G U38A C79U G122A | -3.65
65 | C11U G77U A91U | -1.63
66 | C12A G57U C82G G113A G122A | -2.01
67 | C12G C72A | -0.123
68 | C12G A37C A41U C79A | -3.13
69 | C12U C49G | -0.764
70 | C11U C115G | -1.7
71 | C12G C20A C49A | -2.49
72 | C11U C114U U132A | -3.3
73 | C12U A18U G47C U130A | -4.44
74 | C12A G71U A91C | -1.77
75 | C12G A46G G128C U131A | -2.32
76 | C12A G47A C102G A111C A118C U129C | -7.59
77 | C12G G47C A66U A90C G120C U129A | -6.06
78 | C12U C56A G63U C89U C124A | -4.63
79 | C12A G61U C104U A108C A121U | -3.79
80 | C12U C20U C22A G45U C70U A83U A118U | -6.7
81 | C12A A18C A29G C72A | -2.28
82 | C12A C56U A95G C115A C124A | 0.771
83 | C12A C80U G120U U132A | 1.64
